The series deals with PPAR GAMMA (Mus musculus) (UniProt P37238). The experiment in a line: cell_activity. The conditions noted are these: HepG2 per text (Cos per legend); induction vs empty pSG5; amplified by rosiglitazone.

Turning to “(Rev-DR2)x2 SV40 promoter luciferase reporter”, the activity was 2.5 fold.

Values taken from patent US20050032064.
